{"source": "patent US20250171534A1", "about": "(D2M BIOTHERAPEUTICS, published 2025)", "key": {"[1]": {"target": "T1, LILRB3 expressed on cells (human, UniProt O75022 24-631)", "T1 construct": "whole, on cells; Expressed with a GFP tag from the bought plasmid; also called human LILRB3; CHO-LILRB3", "experiment": "flow cytometry on CHO-LILRB3 cells"}, "[2]": {"target": "T2, LILRB1-ECD-HIS (SinoBiological Cat #: 16014-H02H) (human, UniProt Q8NHL6 24-461)", "T2 construct": "Bought protein; also called monomeric antigen LILRB1-ECD-HIS; not shown: His tag", "T2 sequence (Q8NHL6 other isoform, or with tags, fused parts or gaps H02H H02H)": "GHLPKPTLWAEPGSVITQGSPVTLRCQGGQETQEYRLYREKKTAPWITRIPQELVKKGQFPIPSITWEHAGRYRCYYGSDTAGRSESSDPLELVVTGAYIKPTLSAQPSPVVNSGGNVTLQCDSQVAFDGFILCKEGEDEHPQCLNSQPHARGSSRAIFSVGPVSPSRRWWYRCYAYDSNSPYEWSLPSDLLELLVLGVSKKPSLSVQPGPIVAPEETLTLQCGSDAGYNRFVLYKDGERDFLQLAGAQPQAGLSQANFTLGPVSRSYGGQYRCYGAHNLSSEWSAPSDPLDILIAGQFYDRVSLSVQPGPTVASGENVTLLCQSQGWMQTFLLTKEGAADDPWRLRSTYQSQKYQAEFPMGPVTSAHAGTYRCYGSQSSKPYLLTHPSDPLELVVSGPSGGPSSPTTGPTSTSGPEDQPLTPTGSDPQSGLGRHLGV", "experiment": "SPR (Carterra LSA), antibody captured, antigen injected;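 also: kd obtained from kinetic analysis of antibody binding to the antigen, with association and dissociation phases fitted in the instrument software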"}, "[3]": {"target": "T3, LILRB2-ECD-HIS (SinoBiological Cat #: 14132-H02H) (human, UniProt Q8N423 22-460)", "T3 construct": "Bought protein; also called monomeric antigen LILRB2-ECD-HIS; not shown: His tag", "T3 sequence (Q8N423 other isoform, or with tags, fused parts or gaps H02H H02H)": "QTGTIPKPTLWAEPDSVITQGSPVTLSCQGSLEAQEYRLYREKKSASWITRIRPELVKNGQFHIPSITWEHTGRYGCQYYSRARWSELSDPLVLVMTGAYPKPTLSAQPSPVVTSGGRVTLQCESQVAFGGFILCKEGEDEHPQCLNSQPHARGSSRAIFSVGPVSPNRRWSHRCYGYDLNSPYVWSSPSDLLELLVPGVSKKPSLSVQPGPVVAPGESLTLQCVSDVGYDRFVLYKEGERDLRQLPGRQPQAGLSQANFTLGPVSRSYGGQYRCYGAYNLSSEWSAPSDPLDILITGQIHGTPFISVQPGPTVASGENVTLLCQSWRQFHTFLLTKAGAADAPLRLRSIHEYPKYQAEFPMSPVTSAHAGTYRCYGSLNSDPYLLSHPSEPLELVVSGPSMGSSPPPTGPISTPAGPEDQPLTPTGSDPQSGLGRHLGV", "experiment": "SPR (Carterra LSA), antibody captured, antigen injected"}, "[4]": {"target": "T4, human LILRB1 expressed on cells (human, UniProt Q8NHL6 24-650)", "T4 construct": "In 293T cells it was expressed from pCMV3-LILRB1-GFP; also called CHO-LILRB1; Jurkat-LILRB1", "T4 sequence (Q8NHL6 other isoform, or with tags, fused parts or gaps limits assumed)": "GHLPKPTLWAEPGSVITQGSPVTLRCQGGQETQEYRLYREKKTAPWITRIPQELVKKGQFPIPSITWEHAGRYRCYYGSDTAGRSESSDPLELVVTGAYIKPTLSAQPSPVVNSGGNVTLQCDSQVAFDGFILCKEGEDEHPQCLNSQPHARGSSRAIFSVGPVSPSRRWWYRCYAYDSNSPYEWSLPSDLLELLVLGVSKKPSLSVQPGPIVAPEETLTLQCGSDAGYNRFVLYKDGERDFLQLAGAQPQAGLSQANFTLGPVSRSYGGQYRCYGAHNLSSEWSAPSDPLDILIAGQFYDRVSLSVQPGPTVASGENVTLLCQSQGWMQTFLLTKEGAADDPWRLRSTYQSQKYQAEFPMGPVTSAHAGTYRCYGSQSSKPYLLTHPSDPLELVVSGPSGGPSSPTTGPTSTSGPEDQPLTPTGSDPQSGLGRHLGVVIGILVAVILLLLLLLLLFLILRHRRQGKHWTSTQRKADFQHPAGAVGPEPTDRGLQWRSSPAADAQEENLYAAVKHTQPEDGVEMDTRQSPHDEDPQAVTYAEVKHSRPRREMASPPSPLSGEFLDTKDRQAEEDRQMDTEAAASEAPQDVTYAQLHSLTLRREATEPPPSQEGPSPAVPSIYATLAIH", "experiment": "flow cytometry, Jurkat-LILRB1 cells; blocked ligand: APC HLA-G trimer tetramer"}, "[5]": {"target": "T5, LILRB5 expressed on 293T cells (UniProt O75023 24-590, limits assumed)", "T5 construct": "whole, on cells; GFP-tagged, transient", "T5 sequence (O75023 24-590 limits assumed)": "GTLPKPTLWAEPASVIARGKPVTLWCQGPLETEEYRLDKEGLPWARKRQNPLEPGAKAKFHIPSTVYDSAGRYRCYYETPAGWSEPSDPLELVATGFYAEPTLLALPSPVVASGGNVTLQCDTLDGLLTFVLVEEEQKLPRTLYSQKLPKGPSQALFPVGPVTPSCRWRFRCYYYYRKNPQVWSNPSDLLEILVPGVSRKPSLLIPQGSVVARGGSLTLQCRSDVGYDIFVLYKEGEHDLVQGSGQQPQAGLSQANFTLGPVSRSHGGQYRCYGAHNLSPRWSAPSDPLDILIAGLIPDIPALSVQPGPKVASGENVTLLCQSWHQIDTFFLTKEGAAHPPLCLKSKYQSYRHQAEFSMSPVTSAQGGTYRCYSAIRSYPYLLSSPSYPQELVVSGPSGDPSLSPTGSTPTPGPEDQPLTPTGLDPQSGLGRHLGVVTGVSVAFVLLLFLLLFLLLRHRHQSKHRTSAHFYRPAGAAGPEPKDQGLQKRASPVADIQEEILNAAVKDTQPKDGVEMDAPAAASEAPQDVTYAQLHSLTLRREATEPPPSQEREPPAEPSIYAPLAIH", "experiment": "flow cytometry on 293T cells transiently expressing LILRB5, APC anti-human Fc; gMFI as fold to IgG staining"}, "[6]": {"target": "T6, human LILRB2 expressed on cells (human, UniProt Q8N423 22-597)", "T6 construct": "In 293T cells it was expressed from pCMV3-LILRB2-GFP; also called CHO-LILRB2; Jurkat-LILRB2", "T6 sequence (Q8N423 other isoform, or with tags, fused parts or gaps limits assumed)": "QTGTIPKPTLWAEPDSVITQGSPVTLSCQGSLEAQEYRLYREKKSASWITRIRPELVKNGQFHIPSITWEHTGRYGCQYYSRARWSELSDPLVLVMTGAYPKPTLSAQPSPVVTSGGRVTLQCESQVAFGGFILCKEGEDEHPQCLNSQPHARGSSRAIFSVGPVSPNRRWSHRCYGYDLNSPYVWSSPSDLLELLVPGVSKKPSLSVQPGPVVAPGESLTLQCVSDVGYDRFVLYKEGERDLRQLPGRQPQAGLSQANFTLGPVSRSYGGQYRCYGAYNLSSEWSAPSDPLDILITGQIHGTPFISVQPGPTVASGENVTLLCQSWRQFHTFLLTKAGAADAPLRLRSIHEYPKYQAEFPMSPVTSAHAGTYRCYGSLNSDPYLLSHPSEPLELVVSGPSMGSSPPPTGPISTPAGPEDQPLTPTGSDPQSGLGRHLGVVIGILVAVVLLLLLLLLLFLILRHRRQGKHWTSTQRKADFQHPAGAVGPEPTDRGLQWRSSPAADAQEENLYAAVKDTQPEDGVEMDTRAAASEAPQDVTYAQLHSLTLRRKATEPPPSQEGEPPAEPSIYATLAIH", "experiment": "flow cytometry, Jurkat-LILRB2 cells; blocked ligand: APC HLA-G monomer tetramer"}, "[7]": {"target": "T7, cynomolgus monkey putative LILRB2 (antigen of the Gator measurement) (cynomolgus monkey)", "T7 construct": "also called cynomolgus monkey LILRB2", "experiment": "BLI (Gator), cyno RB2-his"}, "[8]": {"target": "T6, human LILRB2 expressed on cells", "experiment": "flow cytometry, CHO-LILRB2 cells"}, "[9]": {"target": "T3, LILRB2-ECD-HIS (SinoBiological Cat #: …)", "experiment": "BLI (Gator Prime), antibody on anti-hIgG Fc probe, monomeric LILRB2-ECD-HIS in solution"}, "[10]": {"target": "T3, LILRB2-ECD-HIS (SinoBiological Cat #: …)", "experiment": "BLI (Gator), RB2-ECD-his"}, "[11]": {"target": "T3, LILRB2-ECD-HIS (SinoBiological Cat #: …)", "experiment": "BLI (Gator), trace labelled 2 µg/mL; unit taken from the Average KD line"}, "[12]": {"target": "T6, human LILRB2 expressed on cells", "experiment": "flow cytometry, Jurkat-LILRB2 cells; blocked ligand: APC HLA-G monomer tetramer", "remark": "listed apart in the source"}, "[13]": {"target": "T3, LILRB2-ECD-HIS (SinoBiological Cat #: …)", "experiment": "SPR (Carterra), LILRB2-ECD-his"}, "[14]": {"target": "T2, LILRB1-ECD-HIS (SinoBiological Cat #: …)", "experiment": "BLI (Gator), trace labelled 0.5 µg/mL; unit taken from the Average KD line"}, "[15]": {"target": "T8, LILRA2 expressed on 293T cells (UniProt Q8N149 24-483, limits assumed)", "T8 construct": "whole, on cells; GFP-tagged, transient", "T8 sequence (Q8N149 24-483 limits assumed)": "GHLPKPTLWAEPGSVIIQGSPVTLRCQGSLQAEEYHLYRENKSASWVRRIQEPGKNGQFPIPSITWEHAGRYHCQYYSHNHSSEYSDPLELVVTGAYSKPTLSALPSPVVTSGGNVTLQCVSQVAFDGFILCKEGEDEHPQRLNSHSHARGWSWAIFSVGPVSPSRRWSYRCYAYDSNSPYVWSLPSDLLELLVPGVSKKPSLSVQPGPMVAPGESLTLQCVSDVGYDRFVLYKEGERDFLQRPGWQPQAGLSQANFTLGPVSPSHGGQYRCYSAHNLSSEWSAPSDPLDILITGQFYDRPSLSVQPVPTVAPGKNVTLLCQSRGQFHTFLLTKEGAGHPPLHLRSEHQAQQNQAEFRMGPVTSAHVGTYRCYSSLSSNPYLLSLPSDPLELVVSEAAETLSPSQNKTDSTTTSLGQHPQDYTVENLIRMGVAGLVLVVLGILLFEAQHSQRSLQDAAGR", "experiment": "flow cytometry on 293T cells transiently expressing LILRA2, APC anti-human Fc; gMFI as fold to IgG staining"}, "[16]": {"target": "T2, LILRB1-ECD-HIS (SinoBiological Cat #: …)", "experiment": "BLI (Gator Prime), antibody on anti-hIgG Fc probe, monomeric LILRB1-ECD-HIS in solution"}, "[17]": {"target": "T9, LILRA3 expressed on 293T cells (UniProt Q8N6C8 24-439, limits assumed)", "T9 construct": "whole, on cells; GFP-tagged, transient", "T9 sequence (Q8N6C8 24-439 limits assumed)": "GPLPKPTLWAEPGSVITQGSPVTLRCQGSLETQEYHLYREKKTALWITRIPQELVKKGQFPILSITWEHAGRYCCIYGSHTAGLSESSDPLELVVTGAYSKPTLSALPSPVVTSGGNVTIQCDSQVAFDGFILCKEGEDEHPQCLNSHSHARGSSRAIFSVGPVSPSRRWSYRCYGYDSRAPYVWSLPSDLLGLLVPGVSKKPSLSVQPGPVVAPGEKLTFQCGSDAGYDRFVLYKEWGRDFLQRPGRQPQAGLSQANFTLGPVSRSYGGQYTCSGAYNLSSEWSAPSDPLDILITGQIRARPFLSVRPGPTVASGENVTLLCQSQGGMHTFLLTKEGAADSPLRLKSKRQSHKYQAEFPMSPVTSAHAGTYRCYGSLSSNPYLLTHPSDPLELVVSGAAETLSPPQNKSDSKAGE", "experiment": "flow cytometry on 293T cells transiently expressing LILRA3, APC anti-human Fc; gMFI as fold to IgG staining"}, "[18]": {"target": "T10, LILRA1 expressed on cells (human, UniProt O75019 17-489)", "T10 construct": "whole, on cells; GFP-tagged; also called human LILRA1; CHO-LILRA1", "T10 sequence (O75019 17-489)": "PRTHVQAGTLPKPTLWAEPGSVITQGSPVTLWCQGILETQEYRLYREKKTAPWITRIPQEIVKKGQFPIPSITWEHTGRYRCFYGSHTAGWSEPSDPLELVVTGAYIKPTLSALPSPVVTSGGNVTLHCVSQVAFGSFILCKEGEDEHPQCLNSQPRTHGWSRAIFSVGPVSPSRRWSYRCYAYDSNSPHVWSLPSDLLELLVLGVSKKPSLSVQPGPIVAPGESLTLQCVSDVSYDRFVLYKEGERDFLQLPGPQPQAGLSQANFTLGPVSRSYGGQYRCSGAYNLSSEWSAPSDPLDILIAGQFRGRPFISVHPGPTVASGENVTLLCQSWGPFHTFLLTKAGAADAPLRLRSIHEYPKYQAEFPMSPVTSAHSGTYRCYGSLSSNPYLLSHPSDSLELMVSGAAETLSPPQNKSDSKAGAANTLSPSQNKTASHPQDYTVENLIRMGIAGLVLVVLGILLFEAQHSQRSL", "experiment": "flow cytometry on CHO-LILRA1 cells, non-linear fit of the curves of FIG. 26E"}, "[19]": {"target": "T2, LILRB1-ECD-HIS (SinoBiological Cat #: …)", "experiment": "BLI (Gator), trace labelled 5 µg/mL; unit taken from the Average KD line"}, "[20]": {"target": "T4, human LILRB1 expressed on cells", "experiment": "flow cytometry, CHO-LILRB1 cells"}, "[21]": {"target": "T11, LILRA6 expressed on cells (human, UniProt Q6PI73 24-481)", "T11 construct": "whole, on cells; GFP-tagged; also called human LILRA6; CHO-LILRA6", "T11 sequence (Q6PI73 24-481)": "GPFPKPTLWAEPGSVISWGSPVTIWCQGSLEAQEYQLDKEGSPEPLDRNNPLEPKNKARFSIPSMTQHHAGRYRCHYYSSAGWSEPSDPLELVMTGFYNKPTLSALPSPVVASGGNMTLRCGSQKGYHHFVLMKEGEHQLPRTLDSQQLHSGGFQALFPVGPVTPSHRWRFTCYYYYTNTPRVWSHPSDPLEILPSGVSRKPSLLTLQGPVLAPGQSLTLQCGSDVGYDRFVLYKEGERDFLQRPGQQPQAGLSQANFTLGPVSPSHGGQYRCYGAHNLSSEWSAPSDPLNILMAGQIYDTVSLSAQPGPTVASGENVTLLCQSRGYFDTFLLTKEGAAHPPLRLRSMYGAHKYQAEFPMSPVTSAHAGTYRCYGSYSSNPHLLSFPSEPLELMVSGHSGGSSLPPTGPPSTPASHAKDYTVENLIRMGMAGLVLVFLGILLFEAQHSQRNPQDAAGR", "experiment": "flow cytometry on CHO-LILRA6 cells, non-linear fit of the curves of FIG. 26F"}, "[22]": {"target": "T6, human LILRB2 expressed on cells", "experiment": "flow cytometry on CHO-LILRB2 cells, non-linear fit of the curves of FIG. 26B"}}, "note": "Where “and” joins values, the source holds several entries; their conditions need not be identical. Equal entries are not always repeated.", "data": [{"binder": "D2M002-002 (antibody, V domains shown, Hit from immunised mice; also called clone #2; anti-LILRB1/2 clone #2) VH: EVQLQQSGPELVKPGASVKMSCKASGYTFTRYVMHWVKQKPGQGLEWIGYINPNNDGTKYNEKFKGKVTLTSDKSSSTAYMELSSLTSEDSAVYYCARGDLEILPYYDHARNAMDYWGQGTSVTVSS VL: DVQMIQSPASLSASVGETVTITCRASENIYSYLAWYQQKQGKSPQLLVYNAKTLAEGVPSRFSGSGSGTQFSLKINSLQPEDFGSYYCQHFWSTPPTFGGGTKLEIK", "values": [{"measurement": "EC50", "setting": "[1]", "value": "4 µg/mL and 26.6 nM"}, {"measurement": "Kd", "setting": "[2]", "value": 9.77, "unit": "nM"}, {"measurement": "Kd", "setting": "[3]", "value": 1.57, "unit": "nM"}, {"measurement": "IC50", "setting": "[4]", "value": 0.191, "unit": "µg/mL"}, {"measurement": "binding result", "setting": "[5]", "value": "no binding (tested: 5 µg/mL)"}, {"measurement": "IC50", "setting": "[6]", "value": 0.065, "unit": "µg/mL"}, {"measurement": "Kd", "setting": "[7]", "value": 1.36, "unit": "nM"}, {"measurement": "EC50", "setting": "[8]", "value": 0.21, "unit": "µg/mL"}, {"measurement": "gMFI (max)", "setting": "[8]", "value": 21900}, {"measurement": "Kd", "setting": "[9]", "value": 0.286, "unit": "nM"}, {"measurement": "Kd", "setting": "[10]", "value": 0.469, "unit": "nM"}, {"measurement": "Kd", "setting": "[11]", "value": 0.242, "unit": "nM"}, {"measurement": "IC50 (read off the curve)", "setting": "[12]", "value": "~0.06", "unit": "µg/mL"}, {"measurement": "Kd", "setting": "[13]", "value": 0.44, "unit": "nM"}, {"measurement": "koff", "setting": "[13]", "value": 0.0002, "unit": "s⁻¹"}, {"measurement": "kon", "setting": "[13]", "value": 456000, "unit": "M⁻¹ s⁻¹"}, {"measurement": "Kd", "setting": "[14]", "value": 3.13, "unit": "nM"}, {"measurement": "binding result", "setting": "[15]", "value": "no binding (tested: 5 µg/mL)"}, {"measurement": "Kd", "setting": "[16]", "value": 3.4, "unit": "nM"}, {"measurement": "binding result", "setting": "[17]", "value": "no binding (tested: 5 µg/mL)"}, {"measurement": "EC50", "setting": "[18]", "value": 0.474, "unit": "µg/mL"}, {"measurement": "MaxMFI", "setting": "[18]", "value": 19500}, {"measurement": "Kd", "setting": "[19]", "value": 3.61, "unit": "nM"}, {"measurement": "EC50", "setting": "[20]", "value": 0.326, "unit": "µg/mL"}, {"measurement": "EC50", "setting": "[21]", "value": 9.46, "unit": "µg/mL"}, {"measurement": "EC50", "setting": "[22]", "value": 0.128, "unit": "µg/mL"}, {"measurement": "MaxMFI", "setting": "[22]", "value": 32600}]}]}
